Drawing on US20130196320A1, “METHOD FOR IMPROVING CLEAVAGE OF DNA BY ENDONUCLEASE SENSITIVE TO METHYLATION” (CELLECTIS, priority 2010, published 2013), this text covers Kd for two molecules.

Read-outs that look alike come from different tables or passages of the source.

The target in one assay is ADCY9.1 DNA target. Kind of assay: In vitro binding assay, fluorescence anisotropy of fluorescein-labeled ADCY9.1 duplex. The procedure:
(§1) FIG. 12: Spectrofluorimetric titration of fluorescein-labeled ADCY9.1 by ADCY9. 50 nM of ADCY9.1 duplex was incubated with increasing concentrations of ADCY9 (from 0 to 1.5 μM) in binding buffer (10 mM Tris-HCl, 150 mM NaCl, 10 mM CaCl2, 10 mM DTT, pH8) at 25° C. After 30 minutes incubation, the fluorescence anisotropy of the mixture was recorded with a Pherastar Plus (BMG Labtech) operating in fluorescence polarization end point mode with excitation and emission wavelengths set to 495 and 520 nm respectively. Normalized fluorescence anisotropy is plotted as a function of ADCY9 concentration. Apparent dissociation constant were determined by fitting raw data by an hyperbolic function (Ax=(A∞*[Meganuclease])/(Kd+[Meganuclease]) with Ax, the fluorescence anisotropy value obtained at a given meganuclease concentration, A∞ the fluorescence anisotropy value obtained at saturating concentration of meganuclease and Kd the dissociation constant of the equilibrium studied).
(§2) Fluorescein labeled C1234 oligonucleotides were synthesized and HPLC-purified by Eurogentec. […] C 1234 duplex and fluorescein final concentrations were assessed by spectrophotometry using their respective extinction coefficients ε260nm=62900 M^−1 cm^−1 and ε495nm=83000 M^−1 cm^−1. […]

In the next assay the target is XPC4.1 DNA target. The experiment in a line: In vitro binding assay, fluorescence anisotropy of fluorescein-labeled XPC4.1 duplex. The procedure:
as §1, with “7:” for “12:”, “XPC4.1” for “ADCY9.1”, “XPC4.” for “ADCY9.”, “XPC4” for “ADCY9”, “[…])” for “1.5 μM)”
as §2

B1: ADCY9: engineered meganuclease (SEQ ID NO: 3) designed to cleave adenylate cyclase 9 gene (protein)
chain: MANTKYNEEFLLYLAGFVDGDGSIIAQIKPNQSYKFKHQLSLTFRVTQKTQRRWFLDKLVDEIGVGYVRDSGSVSNYDLSEIKPLHNFLTQLQPFLELKQKQANLVLKIIEQLPSAKESPDKFLEVCTWVDQVAALNDSKTRKTTSETVRAVLDSLSEKKKSSPAAGGSDKYNQALSKYNQALSKYNQALSGGGGSNKKFLLYLAGFVDSDGSIIAQIKPDQSYKFKHQLGLTFQVTQKTQRRWFLDKLVDRIGVGYVRDRGSVSDYILSEIKPLHNFLTQLQPFLKLKQKQANLVLKIIEQLPSAKESPDKFLEVCTWVDQVAALNDSKTRKTTSETVRAVLDSLSEKKKSSP
For the molecule B1, the Kd is 431 ± 30 nM at ADCY9.1 DNA target (ADCY9.1_Me −3a/−2b (fully methylated), sigmoidal pattern, read-out: Kd (apparent)) and 190 ± 19 nM on ADCY9.1 DNA target (unmethylated ADCY9.1, read-out: Kd).

B2: XPC4: engineered meganuclease (SEQ ID NO: 2) designed to cleave xeroderma pigmentosum group C gene (XPC) (protein)
chain: MANTKYNEEFLLYLAGFVDGDGSIIAQIKPNQSHKFKHALQLTFKVTQKTQRRWFLDKLVDEIGVGYVQDSGSVSNYILSEIKPLHNFLTQLQPFLELKQKQANLALKIIEQLPSAKESPDKFLEVCTWVDQVAALNDSKTRKTTSETVRAVLDSLSEKKKSSPAAGGSDKYNQALSKYNQALSKYNQALSGGGGSNKKFLLYLAGFVDSDGSIIAQIKPNQSHKFKHQLSLAFQVTQKTQRRWFLDKLVDRIGVGYVRDRGSVSDYILSKIKPLHNFLTQLQPFLKLKQKQANLVLKIIEQLPSAKESPDKFLEVCTWVDQVAALNDSKTRKTTSETVRAVLDSLSEKKKSSP
For B2, the Kd came to 127 ± 22 nM at XPC4.1 DNA target (XPC4.1_Me −11a/−10b & +10a/+11b (fully methylated)) and 108 ± 21 nM on XPC4.1 DNA target (unmethylated XPC4.1).
